Tests used:
[1] = molecular target: thiocyanate dehydrogenase (TcDH) from Thioalkalivibrio paradoxus ARh 1 (Thioalkalivibrio paradoxus ARh 1)
[2] = molecular target: thiocyanate dehydrogenase (TcDH) from Thioalkalivibrio paradoxus ARh 1 (Thioalkalivibrio paradoxus ARh 1); experiment: ITC; aliquots (2.6 µL) of CytC552 injected into a 0.2-mL cell with 9.3 µM TcDH; 25 °C; 25 mM borate buffer, pH 9.5; fitted assuming either one or two binding sites of CytC552 in the TcDH dimer
[3] = molecular target: recombinant cytochrome c552 (CytC552) from Thioalkalivibrio paradoxus (Thioalkalivibrio paradoxus ARh 1); experiment: NMR titration; oxidized 13C/15N-labelled CytC552 titrated with TcDH; intensity of the 1H signal of the heme HAB atom fitted with the Morrison equation; 1H/15N-HSQC chemical shift perturbation at saturating TcDH; slow exchange; 50 mM sodium phosphate, pH 7.0, 303 K

Row | specific activity of TcDH in thiocyanate oxidation with CytC552 as electron acceptor, pH optimum 9.5 [1] [µmol/min/mg] | Kd [2] [nM] | Kd [3] [nM] | stoichiometry N [3] | Substance
1 | 7.3 | 1800 | – | – | recombinant cytochrome c552 (CytC552) from Thioalkalivibrio paradoxus (natural protein)
2 | – | – | 2000 | 1 | thiocyanate dehydrogenase (TcDH) from Thioalkalivibrio paradoxus ARh 1 (enzyme)

Reference: publication PMC9456337
